One series has as its target T1, ASM (Mus musculus, UniProt Q04519).
T1 construct: from tissue; host or cells: mouse serum/plasma and brain tissue (APP/PS1, RSD-stressed C57BL/6, FUS R521C mice)
T1 sequence (Q04519 45-627): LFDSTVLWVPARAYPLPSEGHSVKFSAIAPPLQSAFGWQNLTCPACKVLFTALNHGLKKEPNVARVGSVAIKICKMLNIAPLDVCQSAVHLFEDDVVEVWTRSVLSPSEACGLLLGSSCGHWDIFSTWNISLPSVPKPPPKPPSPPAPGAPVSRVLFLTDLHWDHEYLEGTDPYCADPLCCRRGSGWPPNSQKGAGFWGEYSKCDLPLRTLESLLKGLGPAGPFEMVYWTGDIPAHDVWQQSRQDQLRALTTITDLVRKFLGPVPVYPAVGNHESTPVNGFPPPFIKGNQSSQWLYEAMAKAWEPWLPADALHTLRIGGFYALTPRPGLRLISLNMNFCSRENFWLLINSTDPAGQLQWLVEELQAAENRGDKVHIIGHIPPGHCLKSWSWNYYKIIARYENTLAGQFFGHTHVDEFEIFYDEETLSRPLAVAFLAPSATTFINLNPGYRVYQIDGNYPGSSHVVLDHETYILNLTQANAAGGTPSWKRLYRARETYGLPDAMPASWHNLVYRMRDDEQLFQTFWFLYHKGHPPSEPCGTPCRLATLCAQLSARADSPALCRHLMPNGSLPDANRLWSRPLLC
Description: ASM activity / concentration level in serum (plasma) and brain tissue of APP/PS1 mice (UPLC). It counts as in vivo. The following applies: 7-month-old APP/PS1 mice, 50 mg/kg i.p. twice weekly, vs PBS; FIG. 51B.

In another series the test system is β-amyloid. Description: β-amyloid deposition in brain tissue of APP/PS1 mice (thioflavin S, immunofluorescence, ELISA). Format: in vivo, mouse. The following applies: medulla and hippocampus, 50 mg/kg i.p. twice weekly, vs PBS. As for the experimental part:
First, the cerebral cortex and hippocampus tissue of each mouse prepared in Example 1-1 were isolated, and then a tissue fragment was obtained and this was dyed with thioflavin S according to a conventional known method. The results are illustrated in FIG. 3 (cerebral cortex) and FIG. 4 (hippocampus).
Also, immunofluorescence was performed according to a conventional known method using anti-20G10 (mouse, 1:1000) antibody against Aβ42, anti-G30 (rabbit, […]) antibody against Aβ40, anti-Iba-1 (rabbit, 1:500, Wako) antibody, anti-GFAP (rabbit, 1:500, DAKO) antibody and anti-active caspase3 (rabbit, 1:50, Chemicon) antibody. Tissue fragments were observed using a confocal laser scanning microscope equipped with Fluoview SV1000 imaging software (Olympus FV1000, Japan) or an Olympus BX51 microscope, and the percentage of the area of the dyed area with respect to the area of the entire tissue was quantified using Metamorph software (Molecular Devices).
Also, β-amyloid deposition was confirmed using commercially available ELISA kits (Biosource). More specifically, hemispheres of the brain of each mouse were homogenized in a buffer containing 0.02 M of guanidine. Thereafter, ELISA was performed for Aβ40 and Aβ42 according to the manufacturer's instructions.
(§1) After fixing the cerebral and hippocampal tissues of the mice, 0.5% thioflavin S (Sigma-Aldrich), anti-20G10 antibodies (mouse, 1:1000) against Aβ42, anti-G30 antibodies (rabbit, […]) against Aβ40, anti-GFAP antibodies (rabbit, 1:500, DAKO), or anti-Iba-1 antibodies (rabbit, 1:500, Wako) were co-cultured. The tissues were analyzed using a laser scanning confocal microscope equipped with Fluoview SV1000 imaging software (Olympus FV1000, Japan) or an Olympus BX51 microscope. Percentage of stained area to total tissue area was quantified and analyzed using Metamorph software (Molecular Devices).
After fixing the mouse brain and hippocampus, 0.5% thioflavin S (Sigma-Aldrich), anti-GFAP (rabbit, 1:500, DAKO), and anti-Iba-1 (rabbit, 1:500, WAKO) were co-cultured together. The regions were analyzed using a laser scanning confocal microscope equipped with Fluoview SV1000 imaging software (Olympus FV1000, Japan) or an Olympus BX51 microscope. Percentage of stained area to total tissue area was quantified and analyzed using Metamorph software (Molecular Devices).
Proteins were extracted from mouse brain and hippocampus, and the amounts of Abeta40 (KHB3481, Invitrogen) and Abeta42 (KHB3441, Invitrogen) were measured using ELISA.
(In general: ELISA stands for enzyme-linked immunosorbent assay.)

The test system of another series is APP/PS1 mice. Description: Fear conditioning test in APP/PS1 mice. Format: in vivo, mouse. The following applies: 50 mg/kg i.p. twice weekly, vs PBS, FIG. 55D. The text has this:
More specifically, wild type mice, APP/PS1/ASM^+/− mice, ASM^+/− mice and APP/PS1 mice were used. On day 1 of the test, each mouse was individually placed into a conditioned chamber, and then after a 60-second exploratory period, a tone (10 kHz, 70 dB) was delivered for 10 seconds. This served as the conditioned stimulus (CS). The CS was coterminated with the unconditioned stimulus (US), an electrical footshock (0.3 mA, 1 s). The CS-US pairing was delivered twice at a 20-second intertrial interval. On day 2, each mouse was placed in the fear-conditioning chamber containing the same exact context, but without administration of a CS or footshock. […] On day 3, each mouse was placed in a test chamber that was different from the conditioning chamber. After a 60-second exploratory period, the tone was presented for 60 seconds without the footshock. Freezing response was measured to measure fear memory. The results are illustrated in FIG. 9 and FIG. 10.
For the fear conditioning test, on the first day, mice were placed in a conditioning chamber, and sound stimulation (10 kHz, 70 dB) and electrical stimulation (0.3 mA, 1 s) were given. On the second day, memory for space was checked without stimulation in the same conditioning chamber as on the first day, and on the third day, a memory test for fear was performed when only sound stimulation was given in another conditioning chamber.

The test system of the next series is astrocytes and microglia. Description: Neuroinflammation in brain of APP/PS1 mice (GFAP, Iba-1 staining, cytokine real-time PCR). It counts as in vivo, mouse. The following applies: cerebral medulla and hippocampus, vs PBS. As for the experimental part: as §1
To quantify the expression levels of inflammatory cytokines (TNF-α, […] and IL-6), real-time quantitative PCR was used. […] Also, using Corbett research RG-6000 real-time PCR instrument, real-time quantitative PCR was performed with repeated 40 cycle (one cycle consisting of 95° C., 10 minutes; 95° C., 10 seconds; 58° C., 15 seconds; 72° C., 20 seconds). […]
After fixing the mouse brain and hippocampus, 0.5% thioflavin S (Sigma-Aldrich), anti-GFAP (rabbit, 1:500, DAKO), and anti-Iba-1 (rabbit, 1:500, WAKO) were co-cultured together. The regions were analyzed using a laser scanning confocal microscope equipped with Fluoview SV1000 imaging software (Olympus FV1000, Japan) or an Olympus BX51 microscope. […]

Here are results for one molecule from patent US12545745B2, “Method for treating a degenerative neurological disorders comprising administering ASM inhibitor” (KYUNGPOOK NATIONAL UNIVERSITY INDUSTRY-ACADEMIC COOPERATION …, priority 2013, dated 2026).

Description for ASM: More specifically, 3 μl of plasma, brain tissue and fibroblast samples from each mouse were mixed with an ASM activity buffer, and stored at 37° C. The hydrolysis reaction was completed by adding 114 μl of ethanol to the mixed solution, and then the mixed solution was centrifuged. 30 μl of the supernatant was transferred into a glass vial, and then 5 μl was applied to the UPLC system. The ASM concentration level was quantified in comparison with a bodipy (aminoacetaldehyde) combined with sphingomyelin and ceramide. The sphingomyelin and ceramide levels were extracted and quantified according to a known method, by extracting lipid from the sample, resuspending the dried lipid extract in 25 μl of 0.2% Igepal CA-630 (Sigma-Aldrich), and quantifying the concentration level of each lipid using the UPLC system. […] The animal test conducted was approved by the Kyungpook National University Institutional Animal Care and Use Committee (IACUC). Transgenic mouse line overexpressing APPswe (hAPP695swe) and PS1 (presenilin-1M146V) based on C57BL/6 mice (Charles River, UK) were used as Alzheimer's animal models [hereinafter, APP mice: mice overexpressing APPswe, PS1 mice: overexpressing presenilin-1M146V; GlaxoSmithKline]. […] The concentration level of ASM was measured as follows. Specifically, 3μ ? of mouse serum, brain tissue and fibroblast samples were mixed with ASM activity buffer and stored at 37° C. 114 μ ? of ethanol was added to terminate the hydrolysis reaction, followed by centrifugation. […] The ASM concentration levels were quantified by comparison with sphingomyelin and Bodipy (aminoacetaldehyde) conjugated with ceramide. The extraction and quantification of the sphingomyelin and ceramide was carried out by extracting and drying the lipids from the sample according to a known conventional method, and resuspending the dried lipid extract to 25 μl of 0.2% Igepal CA-630 (Sigma-Aldrich), and the concentration levels of each lipid were quantitated using the UPLC system. […] The concentration level of ASM was measured as follows. […]

B1: ASM-ab 23A12C3: self-made monoclonal ASM antibody, Koma biotech; heavy chain SEQ ID NO. 29, light chain SEQ ID NO. 30 (antibody)
heavy: MGWSWIFLFLLSGTAGVHSEVQLQQSGPVLVKPGASVKMSCKASGYTFTDYYMNWVKQSHGKSLEWIGVINPYNDGTSYNQKFKGKATLTVDKSSSTAYMELNSLTSEDSAVYYCAREKLYYYGRDYAMDYWGQGTSVTVSSAKTTPPSVYPLAPGSAAQTNSMVTLGCLVKGYFPEPVTVTWNSGSLSSGVHTFPAVLQSDLYTLSSSVTVPSSTWPSQTVTCNVAHPASSTKVDKKIVPRDCGCKPCICTVPEVSSVFIFPPKPKDVLTITLTPKVTCVVVDISKDDPEVQFSWFVDDVEVHTAQTKPREEQINSTFRSVSELPIMHQDWLNGKEFKCRVNSAAFPAPIEKTISKTKGRPKAPQVYTIPPPKEQMAKDKVSLTCMITNFFPEDITVEWQWNGQPAENYKNTQPIMDTDGSYFVYSKLNVQKSNWEAGNTFTCSVLHEGLHNHHTEKSLSHSPGK
light: MSSAQFLGLLLLCFQGTRCDIQMTQTTSSLSASLGDRVTISCRSSQDISNYLNWCQQKPDGTVKLLIYYTSRLHSGVPSRFSGSGSGTDYSLTISNLEQEDIATYFCQQDNTLPYTFGGGTKLEIKRADAAPTVSIFPPSSEQLTSGGASVVCFLNNFYPKDINVKWKIDGSERQNGVLNSWTDQDSKDSTYSMSSTLTLTKDEYERHNSYTCEATHKTSTSPIVKSFNRNEC
modifications: 23A12C3_Heavy chain; 23A12C3_Light chain
notes: self-made monoclonal ASM antibody, Koma biotech; 30
With B1, the “level of ASM concentration (ASM activity) in the plasma” value in the series with ASM is given as “remarkably low”. Besides, the “deposition of fibrillar Aβ (thioflavin S)” value in the series with β-amyloid (FIG. 52A, 52B) is “significantly lower”. For the same molecule, in the series with β-amyloid (FIG. 53A, 53B), the “deposition of Aβ40 (ELISA)” value is “significantly lower” and the “deposition of Aβ42 (ELISA)” value is reported as “significantly lower”. Besides, the “impairments in spatial memory, cognition and memory formation (fear conditioning test)” value in the series on APP/PS1 mice is reported as “improved”. The “activity of microglia (Iba-1)” value in the series with astrocytes and microglia (FIG. 54A) is listed as “significantly reduced”. For the same molecule, the “activity of astrocytes (GFAP)” value in the series with astrocytes and microglia (FIG. 54B) is on record as “significantly reduced”.
